According to article PMC10992053, “Rationally introducing non-canonical amino acids to enhance catalytic activity of LmrR for Henry reaction” (Bioresources and Bioprocessing, 2024):

Substrate: O=Cc1ccc([N+](=O)[O-])cc1
Experiment: purified protein
Settings: nitromethane 1 M (excess), 3-18 mM aldehyde, 0.3 mg/mL enzyme, 40 °C, 5 min
Source text: Henry reaction, product by HPLC, Michaelis-Menten fit on LmrR (Lactococcal multidrug resistance Regulator)

B1: LmrR (Lactococcal multidrug resistance Regulator) (Lactococcus cremoris subsp. cremoris MG1363) (protein)
chain: MAEIPKEMLRAQTNVILLNVLKQGDNYVYGIIKQVKEASNGEMELNEATLYTIFKRLEKDGIISSYWGDESQGGRRKYYRLTEIGHENMRLAFESWSRVDKIIENLEANKKSEAIK
B1 was tested, and the Km was 9.30 mM, the Vmax was 1290 µM/min and the kcat was 0.967 s⁻¹. It also gave a kcat/Km of 104 M⁻¹ s⁻¹.
